Measurements published in publication PMC11294453, “Cryo-EM structure of a conjugative type IV secretion system suggests a molecular switch regulating pilus biogenesis” (The EMBO Journal, 2024).

B1: TrwK/VirB4 (enzyme)
chain: MGAIESRKLLASETPVGQFIPYSHHVTDTIISTKNAEYLSVWKIDGRSHQSASEADVFQWIRELNNTLRGISSANLSLWTHIVRRRVYEYPDAEFDNVFCRQLDEKYRESFTGYNLMVNDLYLTVVYRPVSDKVLSFFAKRERETPDQKKHRQESCIKALEDINRTLGQSFKRYGAELLSVYEKGGHAFSAPLEFLARLVNGEHIPMPICRDRFSDYMAVNRPMFSKWGEVGELRSLTGLRRFGMLEIREYDDATEPGQLNVLLESDYEFVLTHSFSVLSRPAAKEYLQRHQKNLIDARDVATDQIEEIDEALNQLISGHFVMGEHHCTLTVYGETVQQVRDNLAHASAAMLDVAVLPKPVDLALEAGYWAQLPANWQWRPRPAPITSLNFLSFSPFHNFMSGKPTGNPWGPAVTILKTVSGTPLYFNFHASKEEEDATDKRLLGNTMLIGQSSSGKTVLLGFLLAQAQKFKPTIVAFDKDRGMEISIRAMGGRYLPLKTGEPSGFNPFQLPPTHANLIFLKQFVKKLAAAGGEVTHRDEEEIDQAITAMMSDSIDKSLRRLSLLLQFLPNPRSDDMDARPTVHARLVKWCEGGDYGWLFDNPTDALDLSTHQIYGFDITEFLDNPEARTPVMMYLLYRTESMIDGRRFMYVFDEFWKPLQDEYFEDLAKNKQKTIRKQNGIFVFATQEPSDALESNIAKTLIQQCATYIFLANPKADYEDYTQGFKLTDSEFELVRGLGEFSRRFLIKQGDQSALAEMNLGKFRTIVDGETVERDFDDELLVLSGTPDNAEIAESIIAEVGDDPAVWLPIFLDRVKAERSDV
notes: TrwK, the VirB4 ATPase of the type IV secretion system encoded by the conjugative plasmid R388; also called TrwK/VirB4_(central); TrwK/VirB4_(outside); source: R388 T4SS complexes expressed and purified from membranes as described previously (Mace et al, 2022)
B2: TrwF/VirB9 (natural protein)
chain: LDVPSSSRYDHRIRYVTYNPADVVQVDTVLGVATHIMLEEGEQYLTHAFGIPKPMPLPGRAGIFLSSRTAELANTNLIVVTDRRSYKFRLQMRNDRNGAMYELAFRYPDTQARQTREANARAAVEAAFEQRVGAYYNLKYMMSGDKDIAPVNAWDDGRFTYFKFSANADLPSIYFVDAEGNESLVPRTTVGSSNNIIAVHKVNPKWMIRLGNRALAIFNEAYDPNGVPNDTGTASPAVRRVNKGGN
notes: TrwF, the VirB9 homologue of the type IV secretion system encoded by the conjugative plasmid R388; NTD in the I-layer, CTD in the O-layer, linker helix residues 128 to 150; also called TrwF/VirB9NTD; VirB9CTD; source: R388 T4SS complexes expressed and purified from membranes as described previously (Mace et al, 2022)
B3: TrwE/VirB10 (natural protein)
chain: MFGRKKGDVIDAGAELERAEQERIEGEYGASELASERRPHTPGARTLLMVLLCVIAVVLVTLSYKAYKVRGVVEDDDAQPQQVVRQVIPGYTPRPIRPEPENVPEPPQPTTSVPAIQPAPVTQPVRPQPTGPREKTPYELARERMLRSGLTAGSGGGEDLPRPQGGDVPAGGLMGGGGGGGELAEKLQPMRLSGSSAGRLGNRDMLITQGTQLDCVLETRLVTTQPGMTTCHLTRDVYSTSGRVVLLDRGSKVVGFYQGGLRQGQARIFVQWSRIETPSGVVINLDSPGTGPLGEAGLGGWIDRHFWERFGGAIMISLIGDLGDWASRQGSRQGNNSIQFSNTANGVESAAAEALRNSINIPPTLYKNQGERVNILVARDLDFSDVYSLESIPTK
notes: TrwE, the VirB10 homologue of the type IV secretion system encoded by the conjugative plasmid R388; residues 21-69, 83-101, 135-153 and 177-395 are described in the structures; the first 20 residues are invisible; also called TrwE/VirB10NTD; VirB10NT; source: R388 T4SS complexes expressed and purified from membranes as described previously (Mace et al, 2022)
B4: TrwG/VirB8 (natural protein)
chain: MSKKQPKPVKAEQLKSYYEESRGLERDLIGEFVKSRKTAWRVATASGLFGLLGMVCGIVGFSQPAPAPLVLRVDNATGAVDVVTTLREHESSYGEVVDTYWLNQYVLNREAYDYNTIQMNYDTTALLSAPAVQQDYYKLFDGSNARDRVLGNKARITVRVRSIQPNGRGQATVRFTTQQHNSNGTVERPQHQIATIGYTYIGAPMRSSDRLLNPLGFQVTSYRADPEILNN
notes: TrwG, the VirB8 homologue of the type IV secretion system encoded by the conjugative plasmid R388; also called TrwG/VirB8_(peri); TrwG/VirB8_(tail); source: R388 T4SS complexes expressed and purified from membranes as described previously (Mace et al, 2022)
B5: TrwM/VirB3 (natural protein)
chain: MKPPQQQHEAFPLFKGATRLPTILGEPMIPLMAMVMGVAVIALTVSIWWWALVPPLWFIMAQITKNDDKAFRIWWLWIDTKFRNRNKGFWGASSYSPANYRKRR
notes: TrwM, the VirB3 homologue of the type IV secretion system encoded by the conjugative plasmid R388; source: R388 T4SS complexes expressed and purified from membranes as described previously (Mace et al, 2022)
B6: TrwI/VirB6 (natural protein)
chain: MAFELFTPLFNKIDQTTATYVTDISSRAIAAITPVVSVGLTLGFITYGWLIIRGAVEMPVAEFLNRCLRIGIIVSIALAGGLYQGEIANAITTVPDELASALLGNPTEGASAAALVDQSAQQGFDRASEAFEEAGFFSSDGLLYGLFGIIIPAGYGPAGAIGGAFLLLAKIALALLAGLGPLFILALIWQPTHRFFDQWAQQVLNYGLLIVLFAAVFGLLMQIFGSYMADLRFDGAQNVAYAIGGSVILSIVSIVLLMQLPSIASGLAGGIGLGYMWELRSMRSGAGAAMRGGRAMARGARAAPGAARGAAVGAANMAKTVATGGAGVARAAAGYFRGRKAG
notes: TrwI, the VirB6 homologue of the type IV secretion system encoded by the conjugative plasmid R388; TM region (α1 and α2) is residues 30-82; also called TrwI/VirB6TM; VirB6_(α1α2TM); source: R388 T4SS complexes expressed and purified from membranes as described previously (Mace et al, 2022)
B7: TrwH/VirB7 (natural protein, UniProt O50334 17-47, looked up)
chain: CASAPKPKQPSDFNREPVNKTVPVEIQRGAL
notes: TrwH, the VirB7 homologue of the type IV secretion system encoded by the conjugative plasmid R388; source: R388 T4SS complexes expressed and purified from membranes as described previously (Mace et al, 2022)
B8: TrwJ/VirB5 (natural protein, UniProt O50331 23-226, looked up)
chain: QGIPVFDGTRALDFVQQFARMKEQLDTAKDQLAEAQRMYEAVTGGRGLGDLMRNAQLREYLPDDLRTVYDSANGGGYSGISGSINDILRDERLNGSVADMRRSIEERSRTARTTDKAVGCGPTKGHSNASRRLKDEISRTQDQKAIEELQARIAGEQAAIQNETTKLQMIAQLRQAEQALISEQRRERNMPILSSGNQGMPTIQ
notes: TrwJ, the VirB5 homologue of the type IV secretion system encoded by the conjugative plasmid R388; residues Gln23-Ala33 newly built; source: R388 T4SS complexes expressed and purified from membranes as described previously (Mace et al, 2022)

Assays:
[1] = target: the molecule itself; test: cryo-EM structure; R388 T4SS complex purified from membranes; extended IMC protomer map without symmetry, 3.83 Å, with the Stalk-Arches-IMC map at 4.33 Å
TrwE/VirB10 [2] = target: B3; test: cryo-EM structure; R388 T4SS complex purified from membranes; OMCC maps: O-layer with C14 symmetry (2.46 Å), I-layer with C16 symmetry (2.69 Å), OMCC conformations A, B and C without symmetry; conditions: both partners purified
[3] = target: the molecule itself; test: as above
TrwK/VirB4 = target: B1; test: cryo-EM structure; R388 T4SS complex purified from membranes; extended IMC protomer map without symmetry, 3.83 Å, with the Stalk-Arches-IMC map at 4.33 Å; conditions: both partners purified
TrwE/VirB10 [4] = target: B3; test: cryo-EM structure; R388 T4SS complex purified from membranes; Arches map without symmetry, 6.22 Å; secondary structures only, no side chains; conditions: both partners purified
[5] = target: the molecule itself; test: as above
TrwE/VirB10 [6] = target: B3; test: cryo-EM structure; R388 T4SS complex purified from membranes; extended IMC protomer map without symmetry, 3.83 Å, with the Stalk-Arches-IMC map at 4.33 Å; conditions: both partners purified
TrwF/VirB9 = target: B2; test: cryo-EM structure; R388 T4SS complex purified from membranes; OMCC maps: O-layer with C14 symmetry (2.46 Å), I-layer with C16 symmetry (2.69 Å), OMCC conformations A, B and C without symmetry; conditions: both partners purified
TrwI/VirB6 = target: B6; test: cryo-EM structure; R388 T4SS complex purified from membranes; Stalk map with C5 symmetry applied, 2.97 Å; conditions: both partners purified

B1
binding result [1]: binds

B2
binding result (TrwE/VirB10 [2]): binds

B3
binding result [3]: binds
binding result (TrwK/VirB4): binds

B4
binding result (TrwE/VirB10 [4]): binds
stoichiometry N [5]: 24 subunits
binding result (TrwK/VirB4): binds

B5
binding result (TrwE/VirB10 [6]): binds
binding result (TrwK/VirB4): binds

B6
binding result (TrwE/VirB10 [6]): binds

B7
binding result (TrwF/VirB9): binds
binding result (TrwE/VirB10 [2]): binds

B8
binding result (TrwI/VirB6): binds
